Source: PMC6364316 (Vaccine, 2018)

Tests used:
[1] = target: T1, gp120 (HIV-1, strain  for this …, UniProt Q75760); experiment: SPR
[2] = target: T1, gp120; experiment: ELISA

B1: IgG b12 (antibody, V domains shown)
VH: QVQLVQSGAEVKKPGASVKVSCQASGYRFSNFVIHWVRQAPGQRFEWMGWINPYNGNKEFSAKFQDRVTFTADTSANTAYMELRSLRSADTAVYYCARVGPYSWDDSPQDNYYMDVWGKGTTVIVSS
VL: EIVLTQSPGTLSLSPGERATFSCRSSHSIRSRRVAWYQHKPGQAPRLVIHGVSNRASGISDRFSGSGSGTDFTLTITRVEPEDFALYYCQVYGASSYTFGQGTKLERK
- Kd [1]: 36 ± 2 nM
- koff [1]: 0.0052 s⁻¹
- 10 times EC50 [2]: 1 µg/mL
